Key:
[1] = molecular target: TRIMCypA from Macaca mulatta (Macaca mulatta)
[2] = molecular target: TRIMCypA from Macaca fascicularis (Macaca fascicularis)
[3] = molecular target: owl monkey TRIMCypA fusion protein (owl monkey (Aotus sp.))

HIV-2ROD capsid (CA) (natural protein)
restriction of infection: ratio of infection titers on CHO cells stably expressing mamu-TRIMCypA over control CHO cells (infectivity ratio) [1]: < 0.2

SIVgsn capsid (CA) (natural protein)
restriction of infection: ratio of infection titers on CHO cells stably expressing mafa-TRIMCypA over control CHO cells (infectivity ratio) [2]: < 0.4

SIVmnd1 capsid (CA) (natural protein)
restriction of infection: ratio of infected cells in CHO cells stably expressing owl-TRIMCypA over control CHO cells (infectivity ratio) [3]: < 0.4
restriction of infection: ratio of infection titers on CHO cells stably expressing mafa-TRIMCypA over control CHO cells (infectivity ratio) [2]: < 0.4

Source: article PMC3751554
